The values that follow come from article PMC11423973 (2024).

Broadly, the Kd is the equilibrium constant for the complex coming apart. A lower Kd goes with a tighter complex.

The target in this assay is SFTSV Gn head domain (Severe fever with thrombocytopenia …). Kind of assay: BLI.

B1: c40C10 (human IgG1 antibody with the heavy and light chain variable regions of mAb 40C10) (antibody, V domains shown)
VH: EVQLQQSGAELVKPGASVKLSCKASGYTFTSHYMYWVKQRPGQGPEWIGEINPTNGGTKFNEKFKSKATLTVDKSSSTAYIQLSSLTSEDSAVYYCSSSGYDYDGRAYFDYWGQGTTLTVSS
VL: DVVMTQTPKFLLVSAGDRVTITCKASQSVSNDVAWYQQKPGQSPKLLIYYASYRYTGVPDRFTGSGYGTDFTFTISAVQAEDLAVYFCQQNYNSPYTFGGGTKLEIK
Regarding B1, the Kd worked out at 0.582 nM.
